The values below come from patent US20150309037A1.

Experiment [1] deals with GDNF family receptor alpha 1 (GFRA1) (UniProt P56159). In words: cell-based or functional assay.
For experiment [2], the target named is trans-membrane receptor kinase RET (UniProt P07949). In words: cell-based or functional assay.
trans-membrane receptor kinase RET, sequence (P07949 29-1114 limits assumed): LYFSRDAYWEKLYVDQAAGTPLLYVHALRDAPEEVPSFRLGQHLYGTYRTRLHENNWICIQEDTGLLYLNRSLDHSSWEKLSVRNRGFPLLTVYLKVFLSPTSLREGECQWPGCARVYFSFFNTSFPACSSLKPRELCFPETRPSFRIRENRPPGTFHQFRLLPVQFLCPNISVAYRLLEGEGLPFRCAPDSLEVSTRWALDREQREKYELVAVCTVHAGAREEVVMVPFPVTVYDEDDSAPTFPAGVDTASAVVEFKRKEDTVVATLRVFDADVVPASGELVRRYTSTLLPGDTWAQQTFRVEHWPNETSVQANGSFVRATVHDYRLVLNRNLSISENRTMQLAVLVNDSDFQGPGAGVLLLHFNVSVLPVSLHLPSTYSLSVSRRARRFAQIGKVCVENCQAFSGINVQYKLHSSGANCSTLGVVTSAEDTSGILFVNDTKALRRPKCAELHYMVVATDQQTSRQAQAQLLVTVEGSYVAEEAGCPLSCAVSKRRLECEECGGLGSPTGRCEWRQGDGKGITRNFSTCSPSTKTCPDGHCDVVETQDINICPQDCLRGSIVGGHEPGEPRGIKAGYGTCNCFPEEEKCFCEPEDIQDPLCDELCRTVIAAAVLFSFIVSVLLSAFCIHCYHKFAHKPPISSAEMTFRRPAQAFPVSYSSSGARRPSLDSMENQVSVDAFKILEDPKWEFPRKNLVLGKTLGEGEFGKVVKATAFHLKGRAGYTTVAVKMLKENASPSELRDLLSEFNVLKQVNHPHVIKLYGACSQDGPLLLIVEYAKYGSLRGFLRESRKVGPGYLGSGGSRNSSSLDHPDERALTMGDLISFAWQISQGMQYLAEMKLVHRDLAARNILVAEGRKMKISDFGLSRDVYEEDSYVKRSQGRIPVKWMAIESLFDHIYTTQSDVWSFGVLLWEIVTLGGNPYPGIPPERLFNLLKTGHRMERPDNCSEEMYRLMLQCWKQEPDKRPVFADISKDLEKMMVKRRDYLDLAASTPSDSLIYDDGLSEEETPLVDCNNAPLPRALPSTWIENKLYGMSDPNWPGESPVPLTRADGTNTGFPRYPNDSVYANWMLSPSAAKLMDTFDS

GDNF family receptor alpha 1 (GFRA1), sequence (P56159 25-429 limits assumed): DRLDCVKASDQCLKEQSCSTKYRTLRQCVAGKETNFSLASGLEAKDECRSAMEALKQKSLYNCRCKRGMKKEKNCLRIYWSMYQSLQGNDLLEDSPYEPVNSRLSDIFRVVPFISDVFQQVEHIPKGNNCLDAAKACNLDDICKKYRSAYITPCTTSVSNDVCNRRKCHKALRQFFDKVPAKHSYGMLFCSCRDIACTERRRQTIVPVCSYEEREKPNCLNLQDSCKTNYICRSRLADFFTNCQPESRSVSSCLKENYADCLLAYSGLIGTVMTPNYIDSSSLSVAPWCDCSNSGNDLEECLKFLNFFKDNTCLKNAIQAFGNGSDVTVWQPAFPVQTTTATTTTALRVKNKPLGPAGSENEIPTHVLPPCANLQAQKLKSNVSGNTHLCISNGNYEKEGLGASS

Consider “glial cell line-derived neurotrophic factor (GDNF) (from UniProt P39905 78-211) (ligand)”, for which the proliferation, GDNF concentration of maximum stimulation in experiment [1] and in experiment [2] was 10 ng/mL in each case.
